The values that follow come from patent publication US20190077860A1 (EISAI R AND D MANAGEMENT, published 2019).

For assay [1], the target named is T1, human EphA4 extracellular region-SEAP-His protein (human, UniProt P54764 20-547).
T1 construct: also called hEphA4-SEAP-His
The experiment in a line: competition ELISA, competitor human Ephrin A5-Fc. The procedure:
Antibody A obtained in Example 1 was evaluated for its inhibitory activity against the binding between human EphA4 and its human ligand according to the following steps. Each well of a 96-well plate (Nunc) was coated with an anti-alkaline phosphatase antibody (Thermo Fisher Scientific). After incubation overnight at 4° C., each well was blocked with 1% BlockAce (DS Pharma Biomedical) at room temperature for 1 hour. After washing with 0.05% Tween 20/PBS (Thermo Fisher Scientific) three times, the human EphA4 extracellular region-SEAP-His protein obtained by the method of Example 1 was added (final concentration: 10 nM) to each well and incubated at room temperature for 1 hour. After washing three times, ligands and serially diluted antibody A (0, 0.003, 0.01, 0.03, 0.1, 0.3, 1, 3, 10, 30, 100, 300, 1000, and 3000 nM) or an EphA4 inhibitor KYL peptide ([…], 0, 0.003, 0.01, 0.03, 0.1, 0.3, 1, 3, 10, 30, 100, 300, 1000, and 3000 μM, its synthesis was outsourced to Toray Research Center) were added to each well. The ligands used were biotinylated human Ephrin A5-Fc chimera (R&D Systems, final concentration: 0.7 nM) and biotinylated human Ephrin B3-Fc chimera (R&D Systems, final concentration: 2.3 nM). […] The absorbance at 450 nm was read using a microplate reader (Molecular Devices or PerkinElmer). […]

Assay [2] deals with T2, human EphA1 extracellular region-SEAP-His protein (human, UniProt P21709 26-547).
T2 construct: extracellular domain; also called hEphA1-SEAP-His
T2 sequence (looked up): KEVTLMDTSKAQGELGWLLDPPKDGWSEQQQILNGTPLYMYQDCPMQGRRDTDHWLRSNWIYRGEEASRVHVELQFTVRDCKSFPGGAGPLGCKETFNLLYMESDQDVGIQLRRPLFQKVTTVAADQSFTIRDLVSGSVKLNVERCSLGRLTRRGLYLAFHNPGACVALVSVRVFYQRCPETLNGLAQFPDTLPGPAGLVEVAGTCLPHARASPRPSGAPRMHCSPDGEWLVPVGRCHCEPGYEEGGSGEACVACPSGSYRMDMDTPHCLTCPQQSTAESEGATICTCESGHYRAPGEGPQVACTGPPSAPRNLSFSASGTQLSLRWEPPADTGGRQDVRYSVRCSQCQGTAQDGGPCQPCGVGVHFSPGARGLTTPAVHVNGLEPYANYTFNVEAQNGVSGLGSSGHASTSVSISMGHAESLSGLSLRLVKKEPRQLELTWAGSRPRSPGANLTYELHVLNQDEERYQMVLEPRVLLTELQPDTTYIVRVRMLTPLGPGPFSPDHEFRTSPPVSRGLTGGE
The experiment in a line: ELISA. (In an ELISA, binding on a coated surface is turned into a signal by an enzyme label.)

The target of assay [3] is T3, human EphB1 extracellular region-SEAP-His protein (human, UniProt P54762 18-540).
T3 construct: extracellular domain; also called hEphB1-SEAP-His
T3 sequence (looked up): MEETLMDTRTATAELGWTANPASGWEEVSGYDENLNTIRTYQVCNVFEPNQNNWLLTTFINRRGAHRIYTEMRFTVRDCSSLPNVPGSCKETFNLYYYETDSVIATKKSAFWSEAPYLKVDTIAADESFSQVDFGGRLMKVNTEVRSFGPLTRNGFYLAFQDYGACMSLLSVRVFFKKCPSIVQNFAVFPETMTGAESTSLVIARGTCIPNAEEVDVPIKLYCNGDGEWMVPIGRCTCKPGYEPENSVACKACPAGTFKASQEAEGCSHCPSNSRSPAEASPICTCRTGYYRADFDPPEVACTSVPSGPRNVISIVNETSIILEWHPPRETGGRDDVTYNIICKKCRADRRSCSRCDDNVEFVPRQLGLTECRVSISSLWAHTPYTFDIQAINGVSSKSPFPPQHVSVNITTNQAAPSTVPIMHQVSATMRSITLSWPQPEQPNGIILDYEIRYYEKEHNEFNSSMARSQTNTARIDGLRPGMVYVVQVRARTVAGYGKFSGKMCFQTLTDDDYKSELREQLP
The experiment in a line: ELISA.

Where a chain is given by its changes, count along the chain named.

Usually IC50 stands for the point on the concentration scale where inhibition reaches its midpoint.

T1 sequence (P54764 20-547): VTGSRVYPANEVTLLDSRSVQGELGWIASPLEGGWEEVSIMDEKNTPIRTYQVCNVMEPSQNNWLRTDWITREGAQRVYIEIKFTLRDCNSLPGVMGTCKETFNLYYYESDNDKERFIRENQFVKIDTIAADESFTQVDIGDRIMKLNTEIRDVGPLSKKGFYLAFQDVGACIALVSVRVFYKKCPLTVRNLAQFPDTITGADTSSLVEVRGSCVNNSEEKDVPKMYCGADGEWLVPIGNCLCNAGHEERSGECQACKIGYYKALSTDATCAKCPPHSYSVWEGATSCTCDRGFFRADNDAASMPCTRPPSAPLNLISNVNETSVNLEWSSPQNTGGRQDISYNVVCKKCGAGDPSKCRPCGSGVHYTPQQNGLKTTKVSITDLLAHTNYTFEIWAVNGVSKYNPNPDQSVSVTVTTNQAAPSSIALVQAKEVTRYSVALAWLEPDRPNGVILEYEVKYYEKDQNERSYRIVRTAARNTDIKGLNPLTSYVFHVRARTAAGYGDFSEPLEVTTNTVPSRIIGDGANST

B1: antibody A (antibody, mouse IgG1, kappa, V domains shown)
VH: QIQLVQSGPELKKPGETVKISCKASGYTFTDYSMHWVKQAPGKGLKWMGWINTETGEPTYADDFKGRFAFSLETSASTAYLQINNLKNEDTATYFCARIPLYYYGSRYWYFDVWGAGTTVTVSS
VL: DIQMTQSPASLSVSVGETVTITCRASENIYRNLAWYQQKQGKSPQLLVYAATNLADGVPSRFSGSGSGTQYSLKINSLQSEDFGSYYCQHFWGTPWTFGGGTKLEIKR
notes: mouse IgG1 heavy chain, kappa light chain; purified from hybridoma supernatant; also called anti-EphA4 monoclonal antibody; antibody A-IgG
As for B1, the IC50 in assay [1] was approximately 2.7 nM.

B2: humanized antibody No. 160 (antibody, human IgG2)
heavy: QIQLVQSGSELKKPGASVKVSCKASGYTFTDYSMHWVRQAPGQGLKWMGWINTETGEPTYADDFKGRFVFSLDTSVSTAYLQISSLKAEDTAVYYCARIPLYYYGSRYWYFDVWGQGTTVTVSSASTKGPSVFPLAPSSRSTSESTAALGCLVKDYFPEPVTVSWNSGALTSGVHTFPAVLQSSGLYSLSSVVTVPSSNFGTQTYTCNVDHKPSNTKVDKTVERKSCVECPPCPAPPAAAPSVFLFPPKPKDTLMISRTPEVTCVVVDVSHEDPEVQFNWYVDGVEVHNAKTKPREEQFNSTFRVVSVLTVVHQDWLNGKEYKCKVSNKGLPAPIEKTISKTKGQPREPQVYTLPPSREEMTKNQVSLTCLVKGFYPSDIAVEWESNGQPENNYKTTPPMLDSDGSFFLYSKLTVDKSRWQQGNVFSCSVMHEALHNHYTQKSLSLSPG
light: DIQMTQSPSSLSASVGDRVTITCRASENIYRNLAWYQQKPGKAPQLLLYAATNLADGVPSRFSGSGSGTDYTLTISSLQPEDFATYYCQHFWGTPWTFGQGTKVEIKRTVAAPSVFIFPPSDEQLKSGTASVVCLLNNFYPREAKVQWKVDNALQSGNSQESVTEQDSKDSTYSLSSTLTLSKADYEKHKVYACEVTHQGLSSPVTKSFNRGEC
notes: human Ig kappa; also called L1-6/HK4
As to B2, the “A450 as % of hEphA4-SEAP-His” value in assay [2] stood at 6.5%; in assay [3], 6.1%.

B3: humanized antibody No. 134 (antibody, human IgG2)
heavy: B2 heavy with I2V, D62Q, D63G, K65T
light: EIVMTQSPATLSVSPGERATLSCRASENIYRNLAWYQQKPGQSPRLLIYAATNLADGIPARFSGSGSGTEYTLTISSLQSEDFAVYYCQHFWGTPWTFGQGTKVEIKRTVAAPSVFIFPPSDEQLKSGTASVVCLLNNFYPREAKVQWKVDNALQSGNSQESVTEQDSKDSTYSLSSTLTLSKADYEKHKVYACEVTHQGLSSPVTKSFNRGEC
notes: human Ig kappa; also called L2-4/HA2
With B3, the “A450 as % of hEphA4-SEAP-His” value in assay [2] and in assay [3] was 5.1% each time.

B4: humanized antibody No. 137 (antibody, human IgG2)
heavy: B2 heavy
light: B3 light
notes: human Ig kappa; also called L2-4/HK4
In the case of B4, the figures for the “A450 as % of hEphA4-SEAP-His” value in assay [2] and in assay [3] were 6.1% and 5.8%, respectively.

B5: humanized antibody No. 136 (antibody, human IgG2)
heavy: B2 heavy with I2V
light: B3 light
notes: human Ig kappa; also called L2-4/HK2
For B5, the “A450 as % of hEphA4-SEAP-His” value in assay [2] came to 5.3%; in assay [3], 5.2%.

B6: humanized antibody No. 135 (antibody, human IgG2)
heavy: B2 heavy with I2V, K46E
light: B3 light
notes: human Ig kappa; also called L2-4/HK1
With B6, the results for the “A450 as % of hEphA4-SEAP-His” value in assay [2] and in assay [3] were 5.2% and 5.1%, respectively.

B7: humanized antibody No. 132 (antibody, human IgG2)
heavy: B2 heavy with D62Q, D63G, K65T
light: B3 light
notes: human Ig kappa; also called L2-4/HA4
With B7, the “A450 as % of hEphA4-SEAP-His” value in assay [2] and in assay [3] was 4.8% throughout.

B8: humanized antibody No. 133 (antibody, human IgG2)
heavy: B2 heavy with I2V, K46E, D62Q, D63G, K65T
light: B3 light
notes: human Ig kappa; also called L2-4/HA1
Regarding B8, the “A450 as % of hEphA4-SEAP-His” value in assay [2] turned out to be 4.9%; in assay [3] it was 4.6%.

B9: humanized antibody No. 94 (antibody, human IgG1, kappa)
heavy: QVQLVQSGSELKKPGASVKVSCKASGYTFTDYSMHWVRQAPGQGLKWMGWINTETGEPTYAQGFTGRFVFSLDTSVSTAYLQISSLKAEDTAVYYCARIPLYYYGSRYWYFDVWGQGTTVTVSSASTKGPSVFPLAPSSKSTSGGTAALGCLVKDYFPEPVTVSWNSGALTSGVHTFPAVLQSSGLYSLSSVVTVPSSSLGTQTYICNVNHKPSNTKVDKRVEPKSCDKTHTCPPCPAPPAAAPSVFLFPPKPKDTLMISRTPEVTCVVVDVSHEDPEVQFNWYVDGVEVHNAKTKPREEQFNSTFRVVSVLTVVHQDWLNGKEYKCKVSNKGLPAPIEKTISKTKGQPREPQVYTLPPSREEMTKNQVSLTCLVKGFYPSDIAVEWESNGQPENNYKTTPPMLDSDGSFFLYSKLTVDKSRWQQGNVFSCSVMHEALHNHYTQKSLSLSPG
light: B3 light
notes: as for B3
With B9, the “A450 as % of hEphA4-SEAP-His” value is 6.5% in assay [2] and 6.7% in assay [3].

B10: humanized antibody No. 95 (antibody, human IgG1, kappa)
heavy: B9 heavy with K46E, Q62D, G63D, T65K
light: B3 light
notes: as for B6
For the molecule B10, the figures for the “A450 as % of hEphA4-SEAP-His” value in assay [2] and in assay [3] were 4.5% and 4.6%, respectively.

B11: humanized antibody No. 73 (antibody, human IgG1, kappa)
heavy: B9 heavy with V2I, Q62D, G63D, T65K
light: B3 light
notes: as for B4
As to B11, the results for the “A450 as % of hEphA4-SEAP-His” value in assay [2] and in assay [3] were 6% and 5.7%, respectively.

B12: humanized antibody No. 93 (antibody, human IgG1, kappa)
heavy: B9 heavy with K46E
light: B3 light
notes: as for B8
Regarding B12, the “A450 as % of hEphA4-SEAP-His” value in assay [2] and in assay [3] was 5% throughout.

B13: humanized antibody No. 71 (antibody, human IgG1, kappa)
heavy: B9 heavy with V2I
light: B3 light
notes: as for B7
As to B13, the figures for the “A450 as % of hEphA4-SEAP-His” value in assay [2] and in assay [3] were 5.6% and 5.4%, respectively.

B14: humanized antibody No. 96 (antibody, human IgG1, kappa)
heavy: B9 heavy with Q62D, G63D, T65K
light: B3 light
notes: as for B5
In the case of B14, the “A450 as % of hEphA4-SEAP-His” value in assay [2] and in assay [3] was 5.6% each time.
